Entries after “also recorded” stand apart in the source; their conditions may differ.

For one assay, the target named is hT40 (Homo sapiens, UniProt P10636). The experiment in a line: Biacore X100 SPR, scAb captured via anti-HuCk, hT40 as analyte. The assay is classed as binding. To be noted: scAb, Table 23, T441 (hT40). Summed up: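 Captured scAb on anti-HuCk CM5 surface (flow cell 1 as reference) in HBS-EP+, capture set for theoretical RMax 100 RU; hT40 injected multi-cycle (0.15625–100 nM) or single-cycle (6.25–100 nM), 120 s association, 420 s dissociation, glycine pH 2.0 regeneration. Kinetics and affinity from 1:1 binding model fit.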
On the technique in general: Surface plasmon resonance follows binding to a sensor surface in real time, without labels.

In a further assay the target is dGAE aggregates (Homo sapiens, UniProt P10636). The experiment in a line: Sandwich ELISA on SDS/Triton X-100 treated dGAE aggregates. The assay is classed as binding. The method, then: For aggregation, 1000 μL 100 μM dGAE+10 μL 10 mM DTT was added to a ‘LoBind’ microfuge tubes and agitated at 700 RPM/37° C., for 24 hours. Resulting sample centrifuged at 17,000×g/4° C., for 60 min and supernatant discarded to remove left over monomer. Pellet resuspended in half the original volume for future experiments and hereafter referred to as ‘aggregates’. 1 μl of aggregates was added to 1 ml of PBS and SDS was added to a final concentration of 1% (w/v). This was left to incubate on lab bench for 1 h with gentle agitation every 15 minutes. In order to neutralise the SDS effect on ELISA, Triton X-100 added to a final concentration of 3% (v/v) and mixed gently by pipetting to prevent any bubble formation. […] Similarly aggregates treated with only SDS or Triton X-100, untreated aggregates, dGAE monomers treated with only SDS or SDS+Titon X-100 were also added to designated wells as controls. All samples were then double diluted across the plate in final volumes of 100 μl. The final column was left with no protein to act as a blank. This was allowed to stand at room temperature for 1 hour followed by the addition of detection scAb-S1G2 at 10 μg/ml. Anti-HuCk HRP labelled secondary antibody was added as described previously and ELISA data generated was represented using the graph below. In addition, limits of detection (LoD) of various core binding antibody pairing for SDS Triton X-100 treated dGAE aggregates were calculated using the above describe ELISA method and substituting capture mAbs and detection scAbs as shown in Table 30.
For orientation: An ELISA detects its analyte on a solid surface through an enzyme-linked reagent.

A further assay relates to plasma tau. The experiment in a line: Plasma tau (Simoa) after S1D12 immunotherapy. The assay is classed as in vivo, mouse. To be noted: L66 mice. The protocol: In a six-week repeat-dose study, a total of 12 WT, 12 Line 1 (L1) and 12 Line 66 homozygotes (L66+/*) female mice aged 2-months at the beginning of the study were used (Table 32 for group size). Mice in each genotype were injected intraperitoneally (i.p.) with either vehicle or S1D12 (30 mg/kg), once per week, for six consecutive weeks.
Three-step assays were performed and analysed as per previously described plasma screening methods in this document.

In a further assay the target is dGAE (Homo sapiens, UniProt P10636). The experiment in a line: dGAE fibril assembly, Thioflavin S fluorescence. The assay is classed as biochemical. The following applies: 25 and 100 μM dGAE, ratios 4:1 or 1:1. The protocol:
dGAE protein was diluted into 10 mM phosphate buffer, pH 7.4 (PB) with monoclonal antibody s1D12 at a ratio of 4:1 protein: Ab (100 μM dGAE+25 μM s1D12 and 10 μM dGAE+2.5 μM s1D12) or 1:1 (25 μM dGAE+25 μM s1D12).
As a positive control, dGAE was prepared at a final concentration of 10, 25 or 100 μM in 10 mM PB. Negative controls consisted of dGAE with a non-tau IgG antibody at a ratio of 4:1 (10 μM dGAE+2.5 μM anti-ovalbumin), or antibody alone (25 or 2.5 μM s1D12 and 2.5 μM anti-ovalbumin). Samples were agitated at 700 rpm at 37° C., for 3 days.
For CD, 60 μL sample was placed in a 0.1 mm quartz cuvette and placed into a JASCO spectropolarimeter. 100 μL ThS in 20 mM MOPS buffer was added to 50 μL of each sample to a final concentration of 20 μM, mixed well, incubated at room temperature for 10 minutes then fluorescence intensity measured in a Cary Eclipse spectrophotometer using an excitation wavelength of 440 nm. Baseline readings from 10 mM PB were subtracted from CD and ThS measurements.

Chain of hT40 (P10636 1-441 isoform P10636-8): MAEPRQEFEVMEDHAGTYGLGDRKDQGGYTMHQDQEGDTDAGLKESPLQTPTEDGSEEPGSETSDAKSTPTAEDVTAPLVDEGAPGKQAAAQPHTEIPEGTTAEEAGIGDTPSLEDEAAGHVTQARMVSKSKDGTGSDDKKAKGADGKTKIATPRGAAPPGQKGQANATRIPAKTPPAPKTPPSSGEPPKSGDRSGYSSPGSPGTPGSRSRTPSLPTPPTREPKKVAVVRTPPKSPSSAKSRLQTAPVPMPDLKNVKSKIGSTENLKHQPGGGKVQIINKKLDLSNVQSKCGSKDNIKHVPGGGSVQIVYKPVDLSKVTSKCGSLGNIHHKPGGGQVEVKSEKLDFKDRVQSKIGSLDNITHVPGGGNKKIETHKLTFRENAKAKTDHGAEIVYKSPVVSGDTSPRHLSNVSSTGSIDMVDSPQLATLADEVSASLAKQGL
Chain of dGAE (P10636 614-708): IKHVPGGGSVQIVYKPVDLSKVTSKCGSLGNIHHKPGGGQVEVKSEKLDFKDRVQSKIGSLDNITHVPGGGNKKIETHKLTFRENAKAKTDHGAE
Chain of dGAE aggregates (P10636 614-708): as above

B1: S1G2: anti-tau clone, SEQ ID NO: 81 (protein)
scFv: QVQLQESGPSLVKPSQTLSLTCTVSGFSLTSNSVGWVRQAPGKAPEWVAGIDTDGEEGYNPALNSRLSITRDTSKSQVSLSLSSVTSEDTAVYYCGRSYRADGLAYGYVQAIDYWGPGLLVTVSSEGKSSGASGESKVDDQAVVTQPSSVSGSLGQRVSITCSGSFIGISSVGWFQQLPGSGLRTIIVASDGRPSGVPDRFSMSKSGNTATLTISSLQAEDEADYFCGSSDRTPYTGVFGSGTRLTVLG
modifications: S1G2 amino acid sequence
As for B1, in the assay with hT40, the ka amounted to 1.057e+06 M⁻¹ s⁻¹ and the kd was 0.00018 s⁻¹. Further, in the assay with dGAE aggregates (S1D12 mAb capture, untreated dGAE agg.), the LoD was 250 ng/mL. The same molecule yielded a LoD with dGAE aggregates (direct immobilisation of dGAE aggregates, +SDS Triton) of 16 ng/mL.

B2: S1D12: anti-tau clone from immunised sheep, SEQ ID NO: 32 (protein)
scFv: QVQLQESGPSLVKPSQTLSLTCTVSGFSLNNNAVGWVRQAPGKVPESLVGCSSDGTCYYNSALKSRLDITRDTSKNQISLSLSSVTTDDAAVYYCTRGHYSIYGYDYLGTIDYWGPGLLVTVSSEGKSSGASGESKVDDQAVLTQPSSVSGSLGQRVSITCSGSSSNVGGGNSVGWYQHLPGSGLKTIIYDTNSRPSGVPDRFSGSRSGNTATLTINSLQAEDEGDYYCVTGDSTTHDDLVGSGTRLTVLG
modifications: S1D12 amino acid sequence
In the assay with hT40, B2 showed a ka of 1.252e+06 M⁻¹ s⁻¹ and a kd of 0.00015 s⁻¹. Also, the “increase in plasma tau vs vehicle, NT1 assay” value in the assay on plasma tau was “four-fold increase”. Besides, the “plasma tau, NT1 assay (BT2 capture with Tau12 detection)” value in the assay with plasma tau (S1D12 mAb 30 mg/kg weekly for 6 weeks) came to 3.2 ± 0.42 pg/mL. The “increase in plasma tau vs vehicle, BT2-HT7” value in the assay on plasma tau (did not reach statistical significance) is recorded as “two-fold increase”. Further, in the assay with dGAE, the “ThS fluorescence signal at 483 nm” value is reported as “this signal was abolished; also recorded: abolished when s1D12 is included in the assembly mixture”.

(Values after patent publication US12624096B2, “Anti-tau antibodies and methods of use thereof” (GTInvent Limited, priority 2020, dated 2026).)
